Measurements from paper PMC10694664 (The Journal of Biological Chemistry, 2023).
Each block holds one binder with its values, some of them ahead of it.

B5: Fis1ΔN (human Fis1 residues 9-125, lacking the N-terminal arm) (domain or fragment)
chain: VSVEDLLKFEKKFQSEKAAGSVSKSTQFEYAWCLVRSKYNDDIRKGIVLLEELLPKGSKEEQRDYVFYLAVGNYRLKEYEKALKYVRGLLQTEPQNNQAKELERLIDKAMKKDGLVG

Legend:
[1] = target: Cy5-labelled Drp1 (isoform 1) (human, UniProt O00429 1-736); assay: MST
[2] = target: B5; assay: NMR titration
[3] = target: T1, Dynamin-related protein 1 (Drp1) isoform 1, unlabelled (human, UniProt O00429 1-736); assay: MST
[4] = target: T1, Dynamin-related protein 1 (Drp1) …; assay: NMR titration

Cy5-labelled Drp1 (isoform 1), sequence (O00429 whole entry, canonical isoform): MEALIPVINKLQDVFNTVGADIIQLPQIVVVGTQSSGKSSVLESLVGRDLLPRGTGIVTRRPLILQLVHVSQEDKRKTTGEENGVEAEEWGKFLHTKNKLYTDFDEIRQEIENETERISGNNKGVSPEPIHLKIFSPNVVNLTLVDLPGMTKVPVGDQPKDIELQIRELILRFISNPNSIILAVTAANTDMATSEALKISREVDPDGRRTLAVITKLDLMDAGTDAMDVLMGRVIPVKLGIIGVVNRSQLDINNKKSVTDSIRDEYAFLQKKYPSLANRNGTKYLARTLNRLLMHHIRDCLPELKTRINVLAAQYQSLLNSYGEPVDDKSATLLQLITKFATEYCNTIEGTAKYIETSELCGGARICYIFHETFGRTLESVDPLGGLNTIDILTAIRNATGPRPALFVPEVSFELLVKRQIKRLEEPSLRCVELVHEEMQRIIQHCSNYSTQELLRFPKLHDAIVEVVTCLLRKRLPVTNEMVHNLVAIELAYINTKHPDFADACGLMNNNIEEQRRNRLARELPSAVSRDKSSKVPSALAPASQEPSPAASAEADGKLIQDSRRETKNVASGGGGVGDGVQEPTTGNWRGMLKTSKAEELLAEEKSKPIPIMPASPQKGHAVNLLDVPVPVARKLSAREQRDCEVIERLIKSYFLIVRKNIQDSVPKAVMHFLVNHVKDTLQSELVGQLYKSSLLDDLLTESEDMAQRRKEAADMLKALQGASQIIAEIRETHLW
T1 sequence (O00429 whole entry, canonical isoform): as above

B1: Fis1 (human Fis1 residues 1-125, with the N-terminal arm) (domain or fragment)
chain: MEAVLNELVSVEDLLKFEKKFQSEKAAGSVSKSTQFEYAWCLVRSKYNDDIRKGIVLLEELLPKGSKEEQRDYVFYLAVGNYRLKEYEKALKYVRGLLQTEPQNNQAKELERLIDKAMKKDGLVG
Kd [1]: 13 ± 3 µM

B2: Fis1 E7A (human Fis1 residues 1-125 with E7A) (domain or fragment)
chain: MEAVLNALVSVEDLLKFEKKFQSEKAAGSVSKSTQFEYAWCLVRSKYNDDIRKGIVLLEELLPKGSKEEQRDYVFYLAVGNYRLKEYEKALKYVRGLLQTEPQNNQAKELERLIDKAMKKDGLVG
Kd [1]: 7 ± 1 µM

Binder: B5
Kd [4]: 26 to 68 µM

Further lines, results first:

Kd [2]: ≥ 5000 µM
B3: Fis1 N-terminal arm peptide (peptide)
peptide: Ac-MEAVLNEL-NH2

Kd [3]: 15 µM
B4: Cy5-labelled Fis1ΔN (residues 9-125) (domain or fragment)
chain: VSVEDLLKFEKKFQSEKAAGSVSKSTQFEYAWCLVRSKYNDDIRKGIVLLEELLPKGSKEEQRDYVFYLAVGNYRLKEYEKALKYVRGLLQTEPQNNQAKELERLIDKAMKKDGLVG
